Assay results as given in patent US20220112288A1 (published 2022).
Where a chain is given by its changes, count along the chain named.

B1: 75110_05A11A (antibody, V domains shown)
VH: EVQLVESGGGLVKPGGSLTLSCAASGFTFSNTWMSWVRQAPGKGLEWVGRIKSKIDGGTTDYAAPVKGRFTISRDDSKNTLYLQMNSLKTEDTAVYYCTTSGTYSSGWGLFDYWGQGTLVTVSS
VL: DIQMTQSPSSLSASVGDRVTITCQASQDISNYLNWYQQKPGKAPKLLIYDTSNLEAGVPSRFSGSGSGTHFTLTISSLQPEDIATYYCQQYDNLPFTFGGGTRVEIK
notes: Tested as non-clonal hybridoma supernatant (AlivaMab Mouse Kappa), detected with anti-mouse Fc and anti-human kappa
B2: 75110_04G02A (antibody, V domains shown)
VH: not shown
VL: DIVMTQSPDSLAVSLGERATINCKSSQSVLYSSNNKNYLAWYQQKPGQPPKLLFYWASARESGVPDRFSGSGSGTDFTLTISSLQAEDVALYYCQQYFGSFPTFGQGTKLEIK
notes: as for B1
B3: 75110_14P08A (antibody, V domains shown)
VH: QVQLQESGPGLVKSSETLSLTCTDSGDSIRSYYWNWIRQPAGKGLEWIGRIYASGSTNYNPSLKSRVIMSADTSKNRFSLKLSSVTAADTAVYYCARDGGVGDSLDYWGQGTLVTVSS
VL: DIVMTQTPLSLPVTPGEPASISCRSSQSLLDSDDGNTYLDWYLQKPGQSPQLLIYTLSYRASGVPDRFSGSGSGTDFTLKISRVEAEDVGVYYCMQRIEFPFTFGPGTKVDIK
notes: Tested as non-clonal AlivaMab Mouse Kappa hybridoma supernatant (detected with anti-mouse Fc gamma and anti-human kappa)
B4: 75110_02N15A (antibody, V domains shown)
VH: EVQLVESGGGLVQPGGSLRLSCAASGFTFSSYWMSWVRQAPGKGLEWVANINEDGNEKYYVDSVKGRFTISRDNAKNSLFLQMNSLRAEDTAVYFCAREGGQWLALDHWGQGALVTVSS
VL: DIQMTQSPSSVSASVGDRVTITCRASQGISSWLAWYQQKPGKAPKFLISGASSLQSGVPSRFSGSGSGTDFTLTISSLQPEDFATYYCQQANSFPWTFGQGTKVEFK
notes: as for B3
B5: 75110_14N19A (antibody, V domains shown)
VH: QVQLQESGPGLVKPSETLSLTCTVSGGSISRYYWSWIRQPAGKGLEWIGRICTSENPNYNPALKSRVTMSVDTSKNQFSLKLSSVTAADTAVYYCARELERLNYYGMDVWGQGTTVTVSS
VL: DIQMTQFPSSLSASVGDRVTITCQASQDISNYLNWYQQKPGKAPKLLIYDASNLESGVPSRFSGRGSGTDFTFTISSLQPEDFATFYCQQYDTLPITFGQGTRLEIK
notes: as for B3
B6: 75110_01L08A (antibody, V domains shown)
VH: QVQLQESGPGLVKPSETLSLTCTVSGGSISHYYWSWIRQPPGKGLEWIGYIHYSGTTNYNPSLKSRVTISVDTSKNQLSLKLRSVTAADTAVYYCARDQGFSSGGMDVWGQGTTVTVSS
VL: not shown
notes: as for B1
B7: 75110_02I18A (antibody, V domains shown)
VH: EVQVVESGGGLVQPGGSLRLSCAASGFTFSSYDMHWVRQATGKGLEWVSTIGTAGDTYYPGSVKGRFTISRENAKNSLYLQMNSLRAGDTAVYYCARGGYYYYGMDVWGQGTTVTVSS
VL: EIVLTQSPGTLSLSPGERATLSCRASQSVSSSYLAWYQQKPGQSPRLLIHGASSRATGIPDRVSGSGSGTDFTLTISRLEPEDFAVYYCQQYGSSPFTFGPGTKVDIK
notes: as for B1
B8: 75110_05F19A (antibody, V domains shown)
VH: B7 VH with V4L, S31N, M34V, A40P, Y101D, M105L
VL: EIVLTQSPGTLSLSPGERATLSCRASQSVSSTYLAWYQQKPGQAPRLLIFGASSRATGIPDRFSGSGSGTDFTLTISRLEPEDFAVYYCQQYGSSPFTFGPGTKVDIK
notes: as for B1
B9: 75110_05E13A (antibody, V domains shown)
VH: EVQLVESGGDLVKPGGSLRLSCAASGFSFSNAWMSWVRQAPGKGLEWVGRVESKTDGGTTDYAAPVKDRFTISRDDSKYTLYLQMNSLKTEDSAVYYCTIGGGFGLELYGFFDYWGQGTLVTVSS
VL: DIQMTQSPSTLSASVGDRVTITCRASQSISSWLAWYQQKPGKAPMLLIYKASSLESGVPSRFSGSGSGTEFTLTISSLQPDDFATYYCLQYNSYYTFGQGTKLEIK
notes: as for B1

How the values were obtained:
[1] = target: T1, human CD4 on cells (SKW3 cells; human PBMCs) (human, UniProt P01730 26-458); assay: FACS confirmation, supernatant on human PBMCs, anti-mFc 647, percent of viable cells
T1 construct: whole, on cells; SKW3 CD4 knockout cells served as the negative cell line for the WT vs KO ratios; also called hCD4; SKW3 WT

[2] = target: T1, human CD4 on cells (SKW3 cells; human …); assay: FACS confirmation, supernatant on SKW3 WT cells, anti-hu Kappa FITC (Bkrd gMFI = 2500)
[3] = target: T1, human CD4 on cells (SKW3 cells; human …); assay: FACS confirmation, supernatant on SKW3 WT cells, anti-mFc 647 (Bkrd gMFI = 3300)
[4] = target: T1, human CD4 on cells (SKW3 cells; human …); assay: SKW3 FACS binning; competitor OKT4-A488 added after supernatant (background 2163, max binding 8200)
[5] = target: T1, human CD4 on cells (SKW3 cells; human …); assay: FACS primary screen, non-clonal hybridoma supernatant; SKW3 WT vs SKW3 CD4 KO cells, anti-mFc-647
[6] = target: T1, human CD4 on cells (SKW3 cells; human …); assay: SKW3 FACS binning; competitor RPA-T4-PE-Dazzle 594 added after supernatant (background 783, max binding 15000)
[7] = target: T1, human CD4 on cells (SKW3 cells; human …); assay: SKW3 FACS binning; competitor OKT4a added after supernatant, anti-hu A647 secondary (background 5000, max binding 35000)
[8] = target: T1, human CD4 on cells (SKW3 cells; human …); assay: FACS confirmation, supernatant on human PBMCs, anti-mFc 647, CD4+ gate
[9] = target: T1, human CD4 on cells (SKW3 cells; human …); assay: FACS primary screen, non-clonal hybridoma supernatant; SKW3 WT vs SKW3 CD4 KO cells, anti-hKappa-FITC
huCD4-HIS [10] = target: T2, huCD4-HIS (human, UniProt P01730 26-390, limits assumed); assay: ELISA binning; competitor Ibalizumab, 100 ng/mL huCD4-HIS, anti-HIS HRP detection (background 45, max binding 3000000)
T2 construct: Named only in the head of the ELISA binning column; not shown: HIS tag

[11] = target: T3, human CD4 on cells (SKW3 cells; human PBMCs) (human, UniProt P01730 26-458); assay: FACS primary screen, hybridoma supernatant, SKW3 vs SKW3 CD4 KO cells;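 also: flow cytometry on mixed SKW3 and dye-labeled SKW3 CD4 knockout cells after 30 min at 4 °C with supernatant, ratio of binding signal on parental versus knockout cells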
T3 construct: whole, on cells; SKW3 CD4 knockout cells served as the negative cell line in the primary screen; also called hCD4; huCD4

huCD4-HIS [12] = target: T4, huCD4-HIS (human, UniProt P01730 26-390, limits assumed); assay: ELISA binning; competitor ibalizumab; 100 ng/mL huCD4-HIS, anti-HIS HRP; background 45, max binding 3000000
T4 construct: the ELISA is not described in the text of this stretch; also called human CD4-HIS

[13] = target: T3, human CD4 on cells (SKW3 cells; human …); assay: FACS confirmation, supernatant on SKW3 cells; background gMFI 3300
[14] = target: T3, human CD4 on cells (SKW3 cells; human …); assay: FACS confirmation, supernatant on SKW3 cells; background gMFI 2500
[15] = target: T3, human CD4 on cells (SKW3 cells; human …); assay: FACS confirmation, supernatant on human PBMCs;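 also: flow cytometry with hybridoma supernatants incubated on human PBMCs for 30 min at 4 °C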
[16] = target: T3, human CD4 on cells (SKW3 cells; human …); assay: FACS binning on SKW3 cells; competitor OKT4a; background 5000, max binding 35000
[17] = target: T3, human CD4 on cells (SKW3 cells; human …); assay: FACS binning on SKW3 cells; competitor OKT4-A488; background 2163, max binding 8200
[18] = target: T3, human CD4 on cells (SKW3 cells; human …); assay: FACS binning on SKW3 cells; competitor RPA-T4-PE-Dazzle 594; background 783, max binding 15000

| Binder | CD4+ Percent Bound of Viable [1] [%] | gMFI [2] [gMFI] | gMFI [3] [gMFI] | OKT4 A488 signal in binning [4] | SKW3 WT vs KO anti-mFc-647 [5] [fold] | RPA-T4-PE-Dazzle 594 signal in binning [6] | OKT4a anti-hu A647 signal in binning [7] | CD4+ gate RL1 Binding [8] | SKW3 WT vs KO anti-hKappa-FITC [9] [fold] | Ibalizumab ELISA binning signal (huCD4-HIS [10]) | SKW3 WT vs KO ratio, anti-hKappa-FITC [11] | SKW3 WT vs KO ratio, anti-mFc-647 [11] | Ibalizumab ELISA binning signal (huCD4-HIS [12]) | gMFI on SKW3 WT, anti-mFc 647 [13] [gMFI] | gMFI on SKW3 WT, anti-hu Kappa FITC [14] [gMFI] | PBMCs CD4+ gate RL1 binding, anti-mFc 647 [15] | PBMCs CD4+ percent bound of viable [15] [%] | OKT4a signal (anti-hu A647) with supernatant [16] | OKT4-A488 signal with supernatant [17] | RPA-T4-PE-Dazzle 594 signal with supernatant [18] |
| --- | --- | --- | --- | --- | --- | --- | --- | --- | --- | --- | --- | --- | --- | --- | --- | --- | --- | --- | --- | --- |
| B1 | 26 | 6620 | 24400 | 8160 | 3.4 | 17200 | 35000 | 247000 | 1.8 | 45 | – | – | – | – | – | – | – | – | – | – |
| B2 | 27 | 4060 | 12000 | 9330 | 6.6 | 12100 | 22500 | 178000 | 1.5 | 45 | – | – | – | – | – | – | – | – | – | – |
| B3 | – | – | – | – | – | – | – | – | – | – | 2.2 | 6.7 | 2.2e+06 | 20300 | 5580 | 292000 | 30 | 38400 | 9100 | 16400 |
| B4 | – | – | – | – | – | – | – | – | – | – | 2.1 | 4.9 | 1.98e+06 | 15900 | 5000 | 250000 | 27 | 42900 | 3020 | 14200 |
| B5 | – | – | – | – | – | – | – | – | – | – | 3.8 | 14.9 | 1.28e+06 | 28600 | 7640 | 277000 | 29 | 29700 | 9080 | 16600 |
| B6 | 27 | 5520 | 18700 | 9750 | 4.3 | 19800 | 9030 | 200000 | 2.6 | 58200 | – | – | – | – | – | – | – | – | – | – |
| B7 | 29 | 5370 | 16500 | 9230 | 4.2 | 4410 | 44800 | 275000 | 2.2 | 291000 | – | – | – | – | – | – | – | – | – | – |
| B8 | 31 | 8510 | 42200 | 8920 | 10.6 | 15900 | 30000 | 281000 | 2.8 | 45 | – | – | – | – | – | – | – | – | – | – |
| B9 | 26 | 8050 | 45600 | 9330 | 5.8 | 16500 | 36400 | 231000 | 1.9 | 45 | – | – | – | – | – | – | – | – | – | – |
